# Measured values published in the supplement of paper PMC9112550, “Optimization of the antimicrobial peptide Bac7 by deep mutational scanning” (BMC Biology, 2022).
# Test system: Escherichia coli TOP10
# Assay: shrunken log2 fold change of peptide-encoding DNA abundance (4.5 h post-induction vs induction); higher = less antimicrobial activity (less host growth inhibition)
# Details: time post-induction: 4.5 h; library: site-saturation at positions 5, 18, 19, 20
# 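Note: peptides expressed intracellularly from a pBAD plasmid library in pooled LB shake-flask culture, induced with 0.3% L-arabinose, DNA abundance read by NGS, three biological replicates, DESeq2 with apeglm shrinkage.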
row,Sequence,shrunken log2 fold change
1,RRIRDRPPRLPRPRPRPWRNPRP,-0.0018
2,RRIRGRPPRLPRPRPRPDDIPRP,0.027
3,RRIRRRPPRLPRPRPRPHLSPRP,0.112
4,RRIRNRPPRLPRPRPRPPFSPRP,0.032
5,RRIRNRPPRLPRPRPRPRSPPRP,2
6,RRIRHRPPRLPRPRPRPGWSPRP,0.0123
7,RRIRRRPPRLPRPRPRPWRMPRP,0.00176
8,RRIRARPPRLPRPRPRPKRTPRP,0.553
9,RRIRPRPPRLPRPRPRPCAIPRP,-1.01
10,RRIRARPPRLPRPRPRPLTTPRP,0.463
11,RRIRYRPPRLPRPRPRPYWVPRP,-0.538
12,RRIRYRPPRLPRPRPRPHMFPRP,0.0171
13,RRIRWRPPRLPRPRPRPRLMPRP,0.44
14,RRIRRRPPRLPRPRPRPQQIPRP,-0.0299
15,RRIRMRPPRLPRPRPRPPFSPRP,0.239
16,RRIRARPPRLPRPRPRPENKPRP,0.31
17,RRIRTRPPRLPRPRPRPHHIPRP,-0.278
18,RRIRIRPPRLPRPRPRPHMRPRP,0.128
19,RRIRSRPPRLPRPRPRPNANPRP,0.0564
20,RRIRRRPPRLPRPRPRPQLGPRP,0.0467
21,RRIRARPPRLPRPRPRPVEEPRP,1.03
22,RRIRGRPPRLPRPRPRPQKRPRP,0.662
23,RRIRCRPPRLPRPRPRPWKRPRP,-0.0584
24,RRIRLRPPRLPRPRPRPRRMPRP,0.053
25,RRIRWRPPRLPRPRPRPMQFPRP,0.104

row,Sequence,shrunken log2 fold change
1,RRIRHRPPRLPRPRPRPEEWPRP,0.0893
2,RRIRIRPPRLPRPRPRPWHTPRP,-0.113
3,RRIRFRPPRLPRPRPRPQWTPRP,-0.075
4,RRIRWRPPRLPRPRPRPDCLPRP,0.166
5,RRIRSRPPRLPRPRPRPEHPPRP,0.166
6,RRIRYRPPRLPRPRPRPVRPPRP,0.924
7,RRIRDRPPRLPRPRPRPHFEPRP,0.163
8,RRIRARPPRLPRPRPRPEHHPRP,0.132
9,RRIRQRPPRLPRPRPRPTKLPRP,-0.0369
10,RRIRNRPPRLPRPRPRPLVDPRP,0.0463
11,RRIRWRPPRLPRPRPRPTKMPRP,0.344
12,RRIRERPPRLPRPRPRPKQVPRP,-0.131
13,RRIRGRPPRLPRPRPRPTYKPRP,0.937
14,RRIRRRPPRLPRPRPRPWGMPRP,0.137
15,RRIRCRPPRLPRPRPRPISLPRP,-0.426
16,RRIRGRPPRLPRPRPRPVSFPRP,0.392
17,RRIRDRPPRLPRPRPRPHTEPRP,-0.0337
18,RRIRRRPPRLPRPRPRPWKYPRP,-0.478
19,RRIRMRPPRLPRPRPRPLRAPRP,2.97
20,RRIRERPPRLPRPRPRPITVPRP,0.0995
21,RRIRLRPPRLPRPRPRPENMPRP,-0.4
22,RRIRRRPPRLPRPRPRPYFCPRP,-0.285
23,RRIRLRPPRLPRPRPRPLIQPRP,-0.247
24,RRIRPRPPRLPRPRPRPDWPPRP,0.524
25,RRIRWRPPRLPRPRPRPEHVPRP,0.0199
